# Results reported in article PMC3695765.
# Target: FLAG-ZO-2 (UniProt Q9UDY2)
# Experiment: GST pull-down from cell lysate
# Details: reference: GST-OccC not prephosphorylated; sites T400,T404,S408
substance,measurement,value
"occludin C-terminal cytoplasmic tail, 263-523 (from UniProt Q16625) GST-OccC prephosphorylated by CK2",binding against the reference,weaker
